Source: patent US10441541B2, “Methods and compositions for treating osteoarthritis and promoting cartilage formation” (New York University, priority 2015, dated 2019)

How the values were obtained:
[1] = test system: neonatal murine chondrocytes; assay: Aggrecan expression in cultured chondrocytes, Alcian Blue staining; assay type: cell-based; settings: 1 μM
Excerpt: (Gosset et al., Nat Protoc 2008; 3:1253-1260). […] Following digital quantitation of alcian-blue stained aggrecan in the tissue wells, aggrecan levels are expressed as % control (±SEM) as provided in FIG. 4B.

A3 adenosine receptor = target: T1, A3 adenosine receptor (Homo sapiens, UniProt P0DMS8); settings: cited from earlier work
T1 sequence (P0DMS8 1-318): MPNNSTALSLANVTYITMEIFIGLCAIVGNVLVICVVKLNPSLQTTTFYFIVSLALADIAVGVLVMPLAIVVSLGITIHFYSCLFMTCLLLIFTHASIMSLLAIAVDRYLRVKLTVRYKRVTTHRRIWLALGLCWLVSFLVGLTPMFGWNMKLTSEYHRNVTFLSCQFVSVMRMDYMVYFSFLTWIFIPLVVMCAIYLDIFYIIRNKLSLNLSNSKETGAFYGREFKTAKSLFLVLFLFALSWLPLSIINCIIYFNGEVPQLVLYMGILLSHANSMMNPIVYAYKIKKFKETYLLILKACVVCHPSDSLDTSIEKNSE

murine chondrocytes = assay: Expression of adenosine-related enzymes and transporters in chondrocytes (RT-PCR, western blot, immunofluorescence); assay type: cell-based, mouse
Description: (§1) Articular chondrocytes were obtained from C57BL/6 WT or A2AKO newborn mice following a protocol previously described (Thirion et al., Methods in Molecular Medicine 2004; 100:1-14), Primary chondrocytes (80% confluence) were starved for 5h. Cells were treated for 24h with mouse recombinant IL-1β (5 ng/ml) in DMEM containing 10% FBS and 1% Penicillin-Steptomycin. For intracellular ATP assay, cells were collected and lysed with RIPA buffer containing proteases and phosphatase inhibitors. […] ATP was assayed using a bioluminescent ATP determination kit following the manufacturer's instructions. Adenosine was extracted and tested by HPLC as previously described. ATP and adenosine data were normalized following protein quantification.
After cell treatments, the total protein extracts were collected and stored at −80° C. Total protein fractions were quantified using the BCA kit (Thermo Scientific). Western blotting was performed by electrophoresing […] protein through a 10% polyacrylamide gel followed by transfer of proteins to nitrocellulose membranes. […] Membranes were scanned with Li-cor Odyssey equipment and the intensities of the protein bands were quantified by densitometric analysis using Image Studio 2.0 38 software. […]

[2] = test system: primary murine chondrocytes; assay: ATP and adenosine content and release of primary chondrocytes after IL-1β; assay type: cell-based, mouse; settings: 5 ng/ml for 24 hours
Description: as §1

[3] = test system: rat tibial plateau explants; assay: Adenosine release from tibial plateau explants, with and without mechanical loading; assay type: cell-based
Description: 14 to 19 week old male Sprague-Dawly rats were sacrificed and their tibias were harvested. The soft tissue was removed from the bone and the proximal tibia was cut in the growth plate region by using a Low Speed Diamond Wheel Saw-Model 650 (South Bay Technologies, CA, USA). Tibia surface was cut separating the medial and the lateral condyle. Samples were incubated in media containing DMEM-F12, FBS 10%, 100 ug/ml of ascorbic acid, 2 mM of […], 1% of Penicillin, Streptomycin and amphotericin. The explants were incubated with or without IL-1β (5 ng/ml) for 24 hours. After incubation the samples were placed in a glass plate in new media without FBS. The loading was programmed using the block waveform feature in Wintest 7 software of BOSE Electroforce 3200 system (Bose Inc., MN, USA). The specimens were preloaded with uniaxial compressive load that was applied at 0.005 mm/s loading rate under displacement control up to 0.01 mm. Samples undergo cyclic load at 2 Hz for 1800 cycles at 1.5N compressive load under load control. Dwell for 2700s immediately after the end of 1800th cycle. Media samples were collected after 1, 10 and 15 minutes during loading and 15 and 30 minutes after loading. Samples collected for ATP assay were stored immediately on ice.

Q: What does the source list for CCNC(=O)[C@H]1O[C@@H](n2cnc3c(N)nc(NCCc4ccc(CCC(=O)O)cc4)nc32)[C@H](O)[C@@H]1O [CGS21680]?
A: aggrecan expression ([1]; Alcian Blue staining of cultured chondrocyte matrix, preliminary experiments): nearly two-fold increase; amount of alcian blue-stained material in wells ([1]; in the absence or presence of IL-1): greatest amount of alcian blue-stained material

Q: With Nc1ncnc2c1ncn2[C@@H]1O[C@H](CO)[C@@H](O)[C@H]1O [adenosine] as the molecule, how does the affinity for adenosine (A3 adenosine receptor) read?
A: low-micromolar range

B1: IL-1β: Mouse and rat recombinant Il-1β from R&D Systems, inflammatory stimulus (protein, UniProt P10749 118-269, looked up)
Interleukin-1 beta: VPIRQLHYRLRDEQQKSLVLSDPYELKALHLNGQNINQQVIFSMSFVQGEPSNDKIPVALGLKGKNLYLSCVMKDGTPTLQLESVDPKQYPKKKMEKRFVFNKIEVKSKVEFESAEFPNWYISTSQAEHKPVFLGNNSGQDIIDFTMESVSS
modifications: rat protein also used
notes: Mouse and rat recombinant Il-1β from R&D Systems, inflammatory stimulus
Q: With B1 as the molecule, how does the “message of ENTPD1, NT5E, PANX1, SLC29A1, SLC29A2 and ANKH” value (murine chondrocytes; 5 ng/ml for 24 hours, RT-PCR, n=4) read?
A: significantly decrease message

Q: What about the “NT5E protein expression and localization on chondrocyte surface” value (murine chondrocytes; 5 ng/ml, western blot and immunofluorescence) of the same molecule?
A: decreased NTSE protein expression and its localization on chondrocyte surface

Q: What about the “ATP released into the supernates” value [2] of the same molecule?
A: 66±3 % of control

Q: What about the “adenosine concentration in the supernates” value [2] of the same molecule?
A: 65 % of control

Q: What about the “intracellular ATP” value [2] of the same molecule?
A: 61±9 % of control

Q: What about the “adenosine concentration in the supernates” value ([2]; n=9, control 143±14 nM) of the same molecule?
A: 94 ± 14 nM

Q: And the “adenosine release from cartilage explants” value ([3]; explants without loading)?
A: reduced adenosine release

Q: And the “adenosine release after weight loading” value ([3]; pre-treatment 5 ng/ml for 24 hours, loading within physiologic range, n=5, without pre-treatment 1657±177 nM)?
A: 960 ± 57 nM
